Assays:
OTUB1 = assay: OTUB1-SSG: GSH immunoprecipitation followed by OTUB1 Western blot; type: cell-based, mouse; details: cells treated with recombinant protein
Protocol: (§1) OTUB1 was one of the PSSG targets detected in IL1B-stimulated epithelial cells raising the possibility that S-glutathionylation of OTUB1 affects the stability of SLC7A11. To investigate this, immunoprecipitation of GSH followed by Western Blotting of OTUB1 in MTE cells treated with vehicle or IL1B was performed. Dithiothreitol (DTT) was incubated with cell lysates prior to immunoprecipitation as a negative control. OTUB1 levels from whole cell lysates were used as the input control. Increases in OTUB1 S-glutathionylation (OTUB1-SSG) in response to IL1B were observed, with further increases occurring in cells lacking Glrx (FIG. 4G), consistent with the role of GLRX as a deglutathionylating enzyme. Western blots were performed using cells treated with the WT- or C23S-mutant GLRX recombinant protein to examine the presence of glutaredoxin (FIG. 4H) and total PSSG (FIG. 4I) (P-value*<0.05, **<0.01, ***<0.001, ****<0.0001). GAPDH was used as a loading control. Glutathione was evaluated in MTE cells treated with recombinant WT- or C23S-mutant GLRX (FIG. 4J) and glutamate in cell culture supernatant of MTE cells treated with WT or the C23S mutant GLRX was also evaluated (FIG. 4K). […]

[1] = tested on: mouse tracheal epithelial (MTE) cells; assay: Extracellular glutamate in cell culture supernatant of MTE cells; type: cell-based; details: direct administration of recombinant protein to MTE cells
From the text: A regulator of GSH homeostasis is the transporter system xC-, which exports glutamate and concomitantly imports cystine in a 1:1 ratio. Once inside the cells, cystine is reduced to two cysteines, the latter being the rate limiting amino acid required for GSH synthesis. These relationships were examined further. […] To address whether IL1B-induced increases in GSH are system xC- dependent, two system xC- inhibitors, erastin (Er) and sulfasalazine (SAS) were used. Cells were pretreated for one hour, followed by IL1B treatment for 24 hours. Then, GSH levels were measured in cells exposed to increasing doses of Er or SAS (FIG. 2G). Extracellular glutamate levels in cell culture supernatant of cells pretreated with 0.5 micromolar Er (left) or 100 micromolar SAS (right) for 1 hour before IL1B stimulation were also measured (FIG. 2H). […] System xC- inhibition is known to induce ferroptosis, an iron-dependent mode of cell death characterized by increased lipid peroxidation. However, no changes in cell viability using erastin (5 micromolar) or sulfasalazine (500 micromolar) were detected (FIG. 2I; P-value*<0.05, ***<0.001, ****<0.0001).
Primary mouse tracheal epithelial (MTE) cells were isolated from C57BL/6NJ wild-type or C57BL6/NJ mice lacking Glrx1 gene and cultured. Cells were grown on collagen coated plastic plates or transwell inserts with media change every 2 days until confluency. For interleukin 1B (IL1B) treatment: cells were incubated in plain Dulbecco's Modified Eagle Medium (DMEM): F12 media containing 6 mM glucose and 2 mM glutamine overnight followed by stimulation with 10 ng/ml IL1B or 0.1% bovine serum albumin (BSA) in phosphate buffered saline (PBS) (vehicle control) for 24 hours. Treatment with crastin, sulfasalazine or BSO occurred 1 hour before IL1B stimulation. Media and cells were collected for further analysis. For growing H522 and OTUB1-CRISPR-H522 cells: Roswell Park Memorial Institute (RPMI) media supplemented with 10% fetal bovine serum (FBS) and 1% pen/strep was used to grow the cells. Plasmid over-expression and OTUB1 knock-down experiments were done when cells were 60-70% confluent.
Glutamate in media was measured using Biovision kit following manufacturer's protocol.

SLC7A11 = SLC7A11 levels in H522 LUAD cells; type: cell-based; details: administration of GLRX to H522 LUAD cells
Protocol: Bio-Rad DC protein estimation kit was used to determine protein concentration in cell lysates. Equal amounts of proteins were resolved using sodium dodecyl sulfate (SDS)-polyacrylamide gel electrophoresis and transferred to polyvinylidene difluoride (PVDF) membranes, blocked in 5% BSA and incubated with primary antibodies overnight. Membranes were subsequently incubated with peroxidase-conjugated secondary antibodies for one hour and then visualized using chemiluminescence.

H522 LUAD cells = assay: GSH levels in H522 LUAD cells; type: cell-based; details: administration of GLRX to H522 LUAD cells
Protocol: Cell lysates were prepared in 100 mM potassium phosphate buffer containing 0.6% sulfosalicylic acid, 1 mM ethylenediaminetetraacetic acid (EDTA) and 0.01% triton-x-100. To measure total glutathione (GSH), equal amounts of proteins were incubated with 3 micromolar 5,5′-dithio-bis (2-nitrobenzoic acid) (DTNB) reagent and 2.25 microgram/ml glutathione reductase followed by the addition of 240 micromolar Nicotinamide adenine dinucleotide phosphate (NADPH). Kinetic absorbance was measured every minute at 412 nm for 20 minutes. For protein S-glutathionylation (PSSG) measurement, 400 micrograms of protein was acetone precipitated and washed thoroughly to remove any free GSH. Pellets were reconstituted in 100 mM potassium phosphate buffer with 1 mM EDTA. Samples were then incubated with 1 mM sodium borohydride (NaBH4) or water (negative control) for 1 hour at room temperature. 10% metaphosphoric acid was added to all the samples, including controls, and left on ice for 10 minutes. Samples were centrifuged at 1000×g for 15 minutes and 20 microliters were loaded in a 96 well plate to measure PSSG using, 5′-dithio-bis-(2-nitrobenzoic acid) (DTNB) recycling enzyme method as stated above.

human LUAD organoids = assay: Human LUAD organoid viability / cisplatin-induced killing; type: cell-based
From the text: To date, the first line therapy for advanced KRAS-mutant lung adenocarcinoma (LUAD) consists of platinum-based chemotherapy in combination with the immune checkpoint inhibitor, pembrolizumab, or pembrolizumab alone in patients whose tumors have PD-L1 expression equal or greater than 50%. […] However, tumor resistance to platinum and toxicity is limited in its effectiveness, necessitating the development of strategies to increase sensitivity to cisplatin-induced killing and increase responsiveness to immune checkpoint inhibitors. Increases in GSH contribute to resistance of cisplatin-induced killing. In one study we administered 20 μg/ml of GLRX to human LUAD organoids in the presence or absence of cisplatin.

KRAS-mutant A549 cells = assay: A549 cell viability / cisplatin-induced killing; type: cell-based
[2] = tested on: mouse tracheal epithelial (MTE) cells; assay: Total PSSG in MTE cells treated with recombinant GLRX; type: cell-based; details: direct administration of recombinant protein to MTE cells
Protocol: as §1, with “GAPDH was used as a loading control.” left out
Cell lysates were prepared in 100 mM potassium phosphate buffer containing 0.6% sulfosalicylic acid, 1 mM ethylenediaminetetraacetic acid (EDTA) and 0.01% triton-x-100. […] Kinetic absorbance was measured every minute at 412 nm for 20 minutes. […]

H522 cells = assay: Synergy of GLRX and cisplatin in killing of H522 cells (Synergy Finder); type: cell-based; details: Chou-Talalay method (Synergy Finder)

B1: GLRX: recombinant wild-type glutaredoxin protein, deglutathionylating enzyme, administered directly to cells (protein, UniProt P35754 2-106, looked up)
Glutaredoxin-1: AQEFVNCKIQPGKVVVFIKPTCPYCRRAQEILSQLPIKQGLLEFVDITATNHTNEIQDYLQQLTGARTVPRVFIGKDCIGGCSDLVSLQQSGELLTRLKQIGALQ
Q: For B1, which “OTUB1-SSG (OTUB1 S-glutathionylation)” value (OTUB1) is on record?
A: Its value is “decreased”.

Q: What about the extracellular glutamate [1] of the same molecule?
A: The extracellular glutamate was “decreased”.

Q: And the SLC7A11 levels (SLC7A11)?
A: Its SLC7A11 levels is “decreased”.

Q: And the GSH levels (H522 LUAD cells)?
A: Its GSH levels is “decreased”.

Q: What about the “viability of human LUAD organoids” value (human LUAD organoids; 20 μg/ml GLRX alone) of the same molecule?
A: Its value is “did not affect”.

Q: And the “sensitivity to cisplatin-induced tumor organoid killing” value (human LUAD organoids; 20 μg/ml GLRX with cisplatin, compared to cisplatin only)?
A: Its value is “strongly increased”.

Q: What about the viability (KRAS-mutant A549 cells; GLRX alone) of the same molecule?
A: The viability was “did not decrease”.

Q: What about the cisplatin-induced killing (KRAS-mutant A549 cells; GLRX with cisplatin) of the same molecule?
A: The cisplatin-induced killing was “promoted”.

Q: What about the “overall PSSG” value [2] of the same molecule?
A: The value was “decreased”.

Q: What about the “synergy with cisplatin (ZIP Score)” value (H522 cells) of the same molecule?
A: The value was over 10.
